Reference: article doi:10.1101/2023.08.11.553006, “Short oligomers rather than rings of human RAD52 promote single-strand annealing” (bioRxiv, 2023)
Where “and” joins values, the source holds several entries; their conditions need not be identical. Equal entries are not always repeated.

T1: RAD52(209) (Homo sapiens, UniProt P43351 1-209)
T1 sequence: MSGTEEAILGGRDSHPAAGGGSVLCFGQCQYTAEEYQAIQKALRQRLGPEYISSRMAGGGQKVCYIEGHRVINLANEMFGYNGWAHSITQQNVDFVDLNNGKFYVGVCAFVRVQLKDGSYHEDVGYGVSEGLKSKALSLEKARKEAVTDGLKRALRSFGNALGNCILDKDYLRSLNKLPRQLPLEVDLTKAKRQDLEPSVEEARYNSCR


Columns and labels:
[1] = biological target: the molecule itself; assay: mass photometry; label-free single molecules landing on glass slides; Buffer 1 (Tris-HCl 20 mM, NaCl 50 mM, pH 7.5); nanomolar protein concentrations, increasing series; protomers to rings
RAD52(209) = biological target: T1, RAD52(209); assay: EMSA (native annealing gel); 50-200 nM protein: annealed product runs at protein-free level; at 1 uM a ring band contains both strands (annealed or not unclear); EMSA: 25 mM Tris-acetate pH 7.5, 2 mM Mg(OAc)2, 1 mM DTT, 10 nM ssDNA, 25 C 10 min or 37 C 5 min; mass photometry: 20 mM Tris-HCl pH 7.5, 50 mM NaCl; settings: protein: recombinant; tags: His tag (pET-15b, Ni-NTA); chain copies: 11; label: 3'-ALEXA488 (Methods: ATTO488) on 48 nt; 3'-ATTO680 on 60 nt; 3' overhang 12 nt (T12) on strand 2

Binder | stoichiometry N [1] | binding result (RAD52(209))
truncated RAD52(209) (domain or fragment, human, UniProt P43351 1-209, looked up, expected monomer molecular weight printed as 25.3 kDa; No removal of the tag is described; Plasmid was a gift from S.C; West; also called C-terminally truncated RAD52; source: E. coli BL21(DE3) with pRARE, purified (His-trap Ni-NTA, Hiload 16/600 superdex)) MSGTEEAILGGRDSHPAAGGGSVLCFGQCQYTAEEYQAIQKALRQRLGPEYISSRMAGGGQKVCYIEGHRVINLANEMFGYNGWAHSITQQNVDFVDLNNGKFYVGVCAFVRVQLKDGSYHEDVGYGVSEGLKSKALSLEKARKEAVTDGLKRALRSFGNALGNCILDKDYLRSLNKLPRQLPLEVDLTKAKRQDLEPSVEEARYNSCR | 11 protomers per ring | 
full-length human RAD52 (natural protein, UniProt P43351 1-418, looked up, RAD52, human, full length; expected monomer molecular weight printed as 48.4 kDa; No removal of the tag is described; Plasmid was a gift from W. Kagawa; source: E. coli BL21(DE3) with pRARE, purified (His-trap Ni-NTA, Hiload 16/600 superdex)) MSGTEEAILGGRDSHPAAGGGSVLCFGQCQYTAEEYQAIQKALRQRLGPEYISSRMAGGGQKVCYIEGHRVINLANEMFGYNGWAHSITQQNVDFVDLNNGKFYVGVCAFVRVQLKDGSYHEDVGYGVSEGLKSKALSLEKARKEAVTDGLKRALRSFGNALGNCILDKDYLRSLNKLPRQLPLEVDLTKAKRQDLEPSVEEARYNSCRPNMALGHPQLQQVTSPSRPSHAVIPADQDCSSRSLSSSAVESEATHQRKLRQKQLQQQFRERMEKQQVRVSTPSAEKSEAAPPAPPVTHSTPVTVSEPLLEKDFLAGVTQELIKTLEDNSEKWAVTPDAGDGVVKPSSRADPAQTSDTLALNNQMVTQNRTPHSVCHQKPQAKSGSWDLQTYSADQRTTGNWESHRKSQDMKKRKYDPS | 7 protomers per ring to 13 protomers per ring (2×) and 10 protomers per ring and 10.6 protomers per ring | 
48/60 nt annealed product (dsDNA) DNA 1: GCAATTAAGCTCTAAGCCATCCGCAAAAATGACCTCTTATCAAAAGGA DNA 2: TCCTTTTGATAAGAGGTCATTTTTGCGGATGGCTTAGAGCTTAATTGCTTTTTTTTTTTT |  | no binding
